This assay addresses T1, murine PD-L1 (murine, UniProt Q9EP73 19-238, limits assumed).
T1 construct: also called PD-Ll; mouse target protein
The assay is described as follows: not described; stated in Example 1.

T1 sequence (Q9EP73 19-238 limits assumed): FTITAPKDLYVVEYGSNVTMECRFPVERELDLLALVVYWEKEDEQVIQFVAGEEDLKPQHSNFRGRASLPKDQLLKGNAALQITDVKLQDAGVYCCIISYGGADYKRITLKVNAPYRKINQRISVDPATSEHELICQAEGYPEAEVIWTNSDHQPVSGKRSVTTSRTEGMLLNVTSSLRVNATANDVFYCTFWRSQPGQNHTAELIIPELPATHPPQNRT

B1: anti-murine PD-L1 clone 178G7 (antibody, V domains shown)
VH: QVQLQQSGADLAKPGSSVKISCKASGYNFNSYYINWIKQTTGQGLEYIGYINTVSGTTKYSEKFKGKATLTVDKSSSTAFMQLSSLTPDDSAVYYCARGTIVLDDYWGQGVKVTVSS
VL: DIVMTQTPSSQAVSAGEKVTMSCKSSQSLLYNEKKKNYLAWYQQKPGQSPKLLIYWASTRESGVPDRFLGSGSGTDFTLTINSVQAEDLAVYYCQQSYDFPRTFGGGTKLELKR
notes: also called anti-PD-L1 antibody; anti-PD-L1 therapy
With B1, the binding result is “binds”.

Source of the values: patent WO2017205216A1 (dated 2017).
